Common to all, as to format: in vivo
Assay [1] concerns mouse CIA model (DBA1/J mice). Briefly: Mouse collagen induced arthritis (CIA) model, preventative protocol. As to conditions: 10 mg/kg, 3x week, i.p., day 21 to day 46. As for the experimental part: (§1) DBA1/J mice (male, 6-7 weeks old, approx 20 gram) were obtained from Centre d'Elevage Regional Janvier (Laval, France). Mice were kept on a 12 hr light/dark cycle (0700-1900). Temperature was maintained at 22° C., and food and water were provided ad libitum.
One day before the experiment, CII solution (2 mg/mL) was prepared with 0.05 M acetic acid and stored at 4° C. Just before the immunization, equal volumes of adjuvant […] and CII were mixed by a homogenizer in a pre-cooled glass bottle in an ice water bath. Extra adjuvant and prolonged homogenization may be required if an emulsion is not formed. 0.1 mL of the emulsion was injected intradermally at the base of the tail of each mouse on day 1, a second booster intradermal injection (CII solution at 2 mg/mL in […] 0.1 mLemulsion) was performed on day 21. […]
(§2) Arthritis was scored according to the method of Khachigian 2006 (Collagen antibody-induced arthritis. (2006) Nature Protocols 1, 2512-6), Lin et al 2007 (supra); Nishida et al. 2004 (Histone deacetylase inhibitor suppression of autoantibody-mediated arthritis in mice via regulation of p16INK4a and p21(WAF1/Cip1) expression. Arthritis Rheum. 10: 3365-76); and Brand et al. 2007 (supra). […]

The test system of assay [2] is BALB/c female mice, LPS-induced acute lung neutrophilia. Briefly: Intranasal instillation of LPS, mouse model of acute lung neutrophilia. As to conditions: single treatment 5 mg/kg i.p. 24 hours before LPS instillation; BAL 24 hours after LPS. Here is the method: Two independent studies were conducted with one negative mAb and two positive mAbs in the intranasal instillation of Lipopolysaccharide (LPS) mouse model of acute lung neutrophilia, a model which mimics some relevant aspects of COPD (Chronic Obstructive Pulmonary Disease). The effects were measured by Broncho Alveolar Lavage (BAL) inflammatory cell counting.
Several groups of mice were treated with different antibodies and Dexamethasone and compared to the mice subjected to LPS only.
BALB/c female mice from Harlan (France) were used in the study. Mice weight was around 20 g.
Mice were anesthetized by isoflurane inhalation. During the breathing, LPS was instilled intranasally. After 24 h, mice were anesthetized intra-peritoneally (IP) and Broncho Alveolar Lavage procedure was performed. Mice were anesthetized by injection of anaesthetic solution of 0.1 mL per 10 g of the mouse weight. The anaesthetic solution was composed of 18 ml 0.9% NaCl, 0.5 mL xylazine (5 mg/Kg) and 1.5 mL ketamine (75 mg/Kg).
The trachea was exposed through midline incision and canulated (with a mice catheter). BAL was performed twice using 1 mL of sterile PBS buffer. […] The cells were counted using a cell counter (Vet abc, France). […]
For all groups, BAL was performed 24 hours after LPS administration and cell counts were measured.
The results were analyzed using Student t-test. […]

In assay [3] the test system is mouse CIA model (DBA1/J mice). Description: Mouse collagen induced arthritis (CIA) model, therapeutic protocol. As to conditions: 10 mg/kg, 3x week, i.p., day 31 to day 46. As for the experimental part: as §1
One day before the experiment, CII solution (2 mg/mL) was prepared with 0.05 M acetic acid and stored at 4° C. Just before the immunization, equal volumes of adjuvant […] and CII were mixed by a homogenizer in a pre-cooled glass bottle in an ice water bath. Extra adjuvant and prolonged homogenization may be required if an emulsion is not formed. 0.1 mL of the emulsion was injected intradermally at the base of the tail of each mouse on day 1, a second booster intradermal injection (CII solution at 2 mg/mL in […] 0.1 mLemulsion) was performed on day 21. This immunization method was modified from published methods (Brand et al, 2007, Collagen-induced arthritis. Nature Protocols; vol 2 (5): 1269-1275; Lin et al., 2007, Anti-rheumatic activities of histone deacetylase (HDAC) inhibitors in vivo in collagen-induced arthritis in rodents. Br J Pharmacol. April; 150 (7):829-31).
The therapeutic effects of the antibodies were tested in the mouse CIA model. Mice were randomly divided into equal groups and each group contained 10 mice. All mice were immunized on day 1 and boosted on day 21. Therapeutic dosing lasted from day 31 to day 46. The negative control group was treated with vehicle (PBS) and the positive control group with Enbrel (10 mg/kg, 3× week, i.p.). An antibody of interest was tested at 10 mg/kg, i.p. 3 times per week.
Anti-IL17C antibodies were administered i.p. three times a week at 10 mg/kg. […]
as §2

B1: MOR12762: anti-mouse IL17C HuCAL antibody; CDRs SEQ ID NO: 171-176, VL 177, VH 178; human/mouse chimeric IgG2a (antibody, V domains shown)
VH: EVQLVQSGAEVKKPGESLKISCKGSGYSFNNYWIAWVRQMPGKGLEWMGFIYPSNSATQYSPSFQGQVTISADKSISTAYLQWSSLKASDTAMYYCARDNEYSDSYFDVWGQGTLVTVSS
VL: DIVLTQSPATLSLSPGERATLSCRASQIVSSYLAWYQQKPGQAPRLLIYDASSRATGIPARFSGSGSGTDFTLTISSLEPEDFAVYYCQQSEQVPTTFGQGTKVEIKRT
modifications: mouse IgG2a constant regions; VH; VL
As to B1, in assay [1], the “inhibition of bone degradation / bone erosion (Larsen score)” value was “significant inhibition” and the “inhibition of inflammation (clinical score)” value was “significant inhibition”. Further, the “inhibition of the recruitment of inflammatory cells into the BALF” value in assay [2] is on record as “inhibited significantly”. Moreover, in assay [3], the “inhibition of inflammation / disease progression (clinical score)” value is given as “significant inhibition”.

These data come from US10815297B2, “Antagonists of IL17C for the treatment of inflammatory disorders” (MorphoSys AG, priority 2011, dated 2020).
